± gives the uncertainty stated by the source.
Experiment: protein stability index of a GFP-peptide fusion (yeast GPS) (PSI 1-4); higher = more stable; sorted into four equal gates, so the index is relative within each strain
In short: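 The protein stability index combines read frequencies across sorting gates, each weighted by its gate number and then summed. To obtain those frequencies, a pooled yeast library of GFP fusions to tiled 17-residue yeast protein peptides, on a plasmid also expressing Cherry, was grown to mid-log phase in leucine-free medium. The cells were sorted into four equal gates by GFP/Cherry ratio before plasmid amplification by PCR and Illumina sequencing.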

Sequence | protein stability index (doa10∆) | protein stability index (pdr5∆) | protein stability index (san1∆) | protein stability index (ubr1∆)
TLRCSVVEACGNIVAEL [YCS4] | 1.87 ± 0.095 | 2.19 ± 0.093 | 2.17 ± 0.15 | 1.55 ± 0.062
IEFEYDPWNKLKHTDYW [RPB3] | 2.85 ± 0.1 | 2.69 ± 0.17 | 2.81 ± 0.089 | 3.06 ± 0.089
DVSQLIAGINKKKGLDE [PRP28] | 3.43 ± 0.095 | 3.64 ± 0.11 | 3.29 ± 0.086 | 3.76 ± 0.11
FPMPYENEEFITFLQTL [ECM29] | 2.34 ± 0.058 | 2.53 ± 0.034 | 2.4 ± 0.047 | 2.39 ± 0.063
LLNTDHTLDPSLLESGS [RPO21] | 2.93 ± 0.085 | 2.94 ± 0.099 | 2.99 ± 0.079 | 3.17 ± 0.059
SDIISMLQISDDNEMTR [RRI2] | 3.05 ± 0.096 | 3.24 ± 0.1 | 3.2 ± 0.045 | 2.87 ± 0.1
DEANIEIDPLTGMPISN [BRN1] | – | 2.65 ± 0.25 | – | 2.42 ± 0.27
VKVLAATNRVDVLDPAL [RPT5] | 3.08 ± 0.099 | 2.84 ± 0.1 | 3.02 ± 0.075 | 2.89 ± 0.071
KEKAPTIIFIDELDAIG [RPT5] | 2.57 ± 0.068 | 2.35 ± 0.041 | 1.85 ± 0.11 | 2.4 ± 0.052
NTVVGISGDISDMQHIE [PRE4] | 2.94 ± 0.12 | 3.29 ± 0.12 | 3.15 ± 0.17 | 2.82 ± 0.12
MIELICSSATVPKHMLD [AAR2] | 1.85 ± 0.082 | 2.26 ± 0.078 | 1.82 ± 0.11 | 1.94 ± 0.058
MLVDLNVPWPQNSYADK [RPP1] | 1.59 ± 0.27 | 1.08 ± 0.14 | – | 1.12 ± 0.15
TNQLVLLQKMLNLLNYQ [YML103C/NUP188] | 1.99 ± 0.04 | 1.43 ± 0.03 | 1.29 ± 0.056 | 1.43 ± 0.031
AIGCIERSDLLPYLSDT [YJR042W/NUP85] | 2.96 ± 0.095 | 2.96 ± 0.098 | 2.8 ± 0.075 | 3.06 ± 0.13
ELMAMNITPRLYTDRSR [RPB2] | 1.91 ± 0.12 | 1.68 ± 0.074 | 1.23 ± 0.13 | 1.96 ± 0.074
YMHDTELNYFVGCKNLE [GRR1] | 2.92 ± 0.085 | 2.78 ± 0.081 | 3.08 ± 0.079 | 3.21 ± 0.046
SNMFDNSADVDMDAQGR [YGL100W/SEH1] | 3.42 ± 0.085 | 3.55 ± 0.076 | 3.5 ± 0.057 | 3.29 ± 0.062
WDLQLQEKESQIQLAES [SMC4] | 3.05 ± 0.056 | 3.08 ± 0.076 | 2.82 ± 0.082 | 3.07 ± 0.06
FAAKQRQELQMQRQQQG [SNF2] | 2.66 ± 0.052 | 2.84 ± 0.046 | 2.71 ± 0.038 | 2.7 ± 0.045
LEMLKPCVEDGFVIQDR [RPB2] | 3.17 ± 0.086 | 3.29 ± 0.12 | 3.19 ± 0.19 | 3.23 ± 0.077
VNDRYQIPTPNNTVDPG [CSI1] | 1.44 ± 0.059 | 1.71 ± 0.075 | 1.71 ± 0.13 | 1.55 ± 0.048
IRVLFKENGQLIGAATK [SEC65] | 1.97 ± 0.068 | 2.12 ± 0.11 | 2.17 ± 0.12 | 2.38 ± 0.079
GAALKDIEIVRVNKNAP [FAS2] | 3.09 ± 0.092 | 3.24 ± 0.12 | 3.21 ± 0.089 | 3.31 ± 0.084
INSGLYSVLLESPLSVA [YML103C/NUP188] | 1.47 ± 0.058 | 1.18 ± 0.066 | 1.15 ± 0.18 | 1.14 ± 0.053
ELQGYIELSVPDRQSMD [SRB5] | 1.36 ± 0.23 | – | – | 1.17 ± 0.21
TFLKYFGWLLSDNSVSV [IRR1] | 2.67 ± 0.14 | 2.4 ± 0.11 | 2.24 ± 0.097 | 2.66 ± 0.11
QAIITERLVEFSNVNEL [YIL149C/MLP2] | 2.72 ± 0.19 | 3.38 ± 0.1 | 3.58 ± 0.15 | 3.31 ± 0.12

Sequence | protein stability index (doa10∆) | protein stability index (pdr5∆) | protein stability index (san1∆) | protein stability index (ubr1∆)
QMMQQAQQKLKQNPGLM [SRP54] | 2.83 ± 0.08 | 3.07 ± 0.082 | 3.12 ± 0.055 | 3.119 ± 0.031
TDRESYPRLQDPSRELN [YCS4] | 3.14 ± 0.05 | 3.19 ± 0.043 | 3.23 ± 0.034 | 3.09 ± 0.052
IFSQTTNSTYNPASATD [YJL039C/NUP192] | 2.83 ± 0.054 | 2.69 ± 0.071 | 2.46 ± 0.054 | 2.63 ± 0.046
CLTGTVAARMFHILLKL [ECM29] | 2.42 ± 0.093 | 2.03 ± 0.096 | 2.74 ± 0.058 | 2.44 ± 0.069
GNKALEDEEEFSIFNYF [RPC34] | 3.21 ± 0.13 | 3.37 ± 0.14 | – | –
PFSFSSATSTTEQTKSK [YLR335W/NUP2] | 2.99 ± 0.06 | 2.99 ± 0.058 | 2.85 ± 0.075 | 2.86 ± 0.054
ILSKKWGFTNLDRPEYL [RPL10] | – | – | – | 2.89 ± 0.26
LDDLVVLKKKNIQKKQP [RRP6] | 1.44 ± 0.079 | 1.38 ± 0.061 | 2.08 ± 0.12 | 2.34 ± 0.14
ILHGSKSQEQREHSLQL [PRP28] | 3.11 ± 0.1 | 2.69 ± 0.089 | 2.92 ± 0.067 | 2.35 ± 0.041
KPNDLVGVNKDSYLILD [RPT5] | 3.05 ± 0.17 | 3.4 ± 0.19 | 3.35 ± 0.082 | 3.49 ± 0.14
AQLTLKRCKHFELGGEK [RPL42A] | 1.93 ± 0.12 | 2.46 ± 0.11 | 2.89 ± 0.069 | 2.56 ± 0.076
AGGGSNKSSVRPTGGAN [MED6] | 2.93 ± 0.09 | 3.12 ± 0.1 | 2.79 ± 0.096 | 3.11 ± 0.077
EKPLILADYIVEVLLVN [NUT1] | 1.91 ± 0.047 | 1.49 ± 0.039 | 1.65 ± 0.17 | 1.32 ± 0.039
IAVLRSKEWFQLDDEDF [FAS1] | 2.03 ± 0.041 | 2.09 ± 0.041 | 1.81 ± 0.058 | 2.32 ± 0.038
KTSLMDLLVIDSHKRIP [SNU114] | 2.43 ± 0.069 | 2.73 ± 0.078 | 2.74 ± 0.063 | 2.41 ± 0.054
FDALRSLDDNSTSLEKQ [YJL041W/NSP1] | 2.99 ± 0.086 | 3.03 ± 0.11 | 3 ± 0.062 | 3.02 ± 0.066
QEYLNPVIDTQIANEFN [YDL116W/NUP84] | 2.85 ± 0.053 | 2.96 ± 0.058 | 2.71 ± 0.046 | 2.88 ± 0.052
EDEMMHEEDQKTNIIEK [RPN12] | 3.26 ± 0.1 | 3.09 ± 0.12 | 2.58 ± 0.15 | 2.85 ± 0.13
RLGEMERDCVIAYGASQ [RET1] | 3.24 ± 0.095 | 3.28 ± 0.086 | 2.55 ± 0.13 | 3.22 ± 0.062
NILALNLVSLLIIVTRK [YML031W/NDC1] | 1.92 ± 0.072 | 1.35 ± 0.044 | 1.2 ± 0.11 | 1.32 ± 0.039
KWSKKSMKDRAQHAVIL [RPS25A] | 2.37 ± 0.058 | 2.42 ± 0.095 | 2.73 ± 0.091 | 2.63 ± 0.054
LGSQSKSDEGGSYLCTS [YOR098C/NUP1] | 3.26 ± 0.11 | 2.98 ± 0.07 | 3.14 ± 0.069 | 2.71 ± 0.081
TSANGIVQFTYGGDGLD [RPO31] | 2.68 ± 0.093 | 2.77 ± 0.092 | 2.24 ± 0.15 | 3.04 ± 0.064
LIIQKIPSLQNNIEENL [ECM29] | 2.91 ± 0.067 | 2.88 ± 0.066 | 2.66 ± 0.065 | 2.98 ± 0.071
VDVFAMPQSGTGVSVEA [RPN11] | 3.1 ± 0.1 | 3.41 ± 0.13 | 3.41 ± 0.076 | 3.05 ± 0.095
GTHNMYKEIRDVSRVAA [RPL20A] | 1.96 ± 0.089 | 2.22 ± 0.14 | 2.03 ± 0.1 | 2.29 ± 0.083

— the supplement of paper PMC9732359
